According to patent US12304939B2, “EGFR and C-met fibronectin type III domain binding molecules” (Janssen Biotech, Inc., priority 2012, dated 2025):
Substitutions are numbered along the chain they refer to. “And” between values parts separate entries of the source, which are not always exact repeats. Identical values can stand only once. “Also recorded” adds a separate entry of the source.

Columns and labels:
[1] = Body weight loss and tolerability in the H292-HGF xenograft study; conditions: mouse, in vivo; listed as bispecific EGFR/c-Met molecule
Procedure: At the time of routine monitoring, the animals were checked for any effects of tumor growth and treatments on normal behavior, such as mobility, visual estimation of food and water consumption, body weight gain/loss (body weights were measured twice weekly), eye/hair matting and any other abnormal effect.
Animals for which the body weight loss exceeded 20%, or for which the mean tumor size of the group exceeds 2000 mm^3 were euthanized. The study was terminated after two weeks of observation after the final dose.

[2] = test system: NCI-H292 cells expressing human HGF; assay: Tumor efficacy study with four bispecific EGFR/c-Met molecules, H292-HGF xenografts; assay type: in vivo, SCID Beige mice; conditions: 25 mg/kg three times per week
Procedure: One week after implantation, mice were stratified into groups with equivalent tumor volumes (mean tumor volume=77.9+/−1.7 mm3). Mice were dosed three times per week with the bispecific molecules and tumor volumes were recorded twice weekly.

[3] = test system: H292-HGF human lung cancer xenograft; assay: Efficacy of bispecific molecule and other inhibitors of EGFR and c-Met, subcutaneous H292-HGF human lung cancer xenograft; assay type: in vivo, SCID/Beige mice; conditions: for Tumor volume: mean ± SEM
Procedure: The H292-HGF cells were maintained in vitro in RPMI1640 medium supplemented with fetal bovine serum (10% v/v), and L-glutamine (2 mM) at 37° C. in an atmosphere of 5% CO2 in air. The cells were routinely subcultured twice weekly by trypsin-EDTA treatment. The cells growing in an exponential growth phase were harvested and counted for tumor inoculation.
Each mouse was inoculated subcutaneously at the right flank region with H292-HGF tumor cells (2×10^6) in 0.1 ml of PBS with cultrex (1:1) for tumor development. The treatments were started when the mean tumor size reached 139 mm3. […] The date of tumor cell inoculation was denoted as day 0.
Before commencement of treatment, all animals were weighed, and the tumor volumes were measured. Since the tumor volume can affect the effectiveness of any given treatment, mice were assigned into groups using randomized block design based upon their tumor volumes. […] The randomized block design was used to assign experimental animals to groups. First, the experimental animals were divided into homogeneous blocks according to their initial tumor volume. Secondly, within each block, randomization of experimental animals to treatments was conducted.
The endpoint was whether tumor growth can be delayed or tumor bearing mice can be cured. Tumor size was measured twice weekly in two dimensions using a caliper, and the volume was expressed in mm3 using the formula: V=0.5 a×b2 where a and b are the long and short diameters of the tumor, respectively. The tumor size was then used for calculations of both T-C and T/C values. T-C was calculated with T as the time (in days) required for the mean tumor size of the treatment group to reach 1000 mm3, and C was the time (in days) for the mean tumor size of the control group to reach the same size. The T/C value (in percent) was an indication of antitumor efficacy; T and C were the mean tumor volume of the treated and control groups, respectively, on a given day. Complete tumor regression (CR) is defined as tumors that are reduced to below the limit of palpation (62.5 mm3). Partial tumor regression (PR) is defined as tumors that are reduced from initial tumor volume. A minimum duration of CR or PR in 3 or more successive tumor measurements is required for a CP or PR to be considered durable.
Statistical analyses of difference in tumor volume among the groups were evaluated using a one-way ANOVA followed by individual comparisons using Games-Howell (equal variance not assumed). All data were analyzed using SPSS 18.0. p<0.05 was considered to be statistically significant.

[4] = biological target: T1, EGFR (Homo sapiens, UniProt P00533); assay: Inhibition of EGFR phosphorylation in NCI-H292 cells; assay type: cell-based; set-up: host or cells: NCI-H292; conditions: FIG. 5A
Procedure: Purified EGFR-binding FN3 domains were tested for their ability to inhibit EGF-stimulated phosphorylation of EGFR in A431 cells at a single concentration. EGFR phosphorylation was monitored using the EGFR phospho(Tyr1173) kit (Meso Scale Discovery). […] Controls were treated with starvation medium only. […] One set of control wells was left un-stimulated as negative controls. Medium was completely removed, and cells were lysed with 100 μL/well of Complete Lysis Buffer (Meso Scale Discovery) for 10 minutes at room temperature with shaking, as per the manufacturer's instructions. […] Signals were detected by addition of 150 μL/well of Read Buffer (Meso Scale Discovery) and reading on a SECTOR® Imager 6000 instrument (Meso Scale Discovery) using manufacturer-installed assay-specific default settings. Percent inhibition of the EGF-stimulated positive control signal was calculated for each EGFR-binding FN3 domain.
NCI-H292, NCI-H441, or NCI-H596 cells were plated in 96 well plates in RPMI medium containing 10% FBS. […] Cells were lysed with MSD Lysis Buffer and cell signaling was assessed using appropriate MSD Assay plates, according to manufacturer's instructions, as described above.

[5] = biological target: T1, EGFR; assay: Inhibition of EGFR phosphorylation in NCI-H441 cells; assay type: cell-based; set-up: host or cells: NCI-H292; conditions: FIG. 5C
Procedure: (§1) NCI-H292, NCI-H441, or NCI-H596 cells were plated in 96 well plates in RPMI medium containing 10% FBS. 24 hours later, medium was replaced with serum free RPMI. […] Cells were treated for 1 h with the monospecific or bispecific molecules and then stimulated with EGF, HGF, or a combination of EGF and HGF for 15 minutes at 37° C., 5% CO2. Cells were lysed with MSD Lysis Buffer and cell signaling was assessed using appropriate MSD Assay plates, according to manufacturer's instructions, as described above.

[6] = biological target: T1, EGFR; assay: Inhibition of EGFR phosphorylation in NCI-H596 cells; assay type: cell-based; set-up: host or cells: NCI-H292; conditions: FIG. 5B
Procedure: as §1

[7] = test system: cell lines shown in Table 20; assay: Inhibition of human tumor cell growth by bispecific molecule in cell line panel (standard or low attachment); assay type: cell-based
Procedure: (§2) Inhibition of human tumor cell growth was assessed in standard attachment culture as described in Examples 3 or 6, or in low attachment conditions.

[8] = biological target: T2, c-Met-Fc fusion protein (Homo sapiens, UniProt P08581); assay: c-Met-Fc affinity by surface plasmon resonance (Proteon); assay type: binding
T2 construct: recombinant EGFR and/or c-Met extracellular domain

[9] = test system: H292 cells; assay: Inhibition of proliferation of HGF-induced H292 cells; assay type: cell-based, human; conditions: bispecific molecules
From the text: Inhibition of tumor cell proliferation can be measured using standard methods and methods described herein.
The proliferation assay was completed using different combinations EGFR and c-Met binding FN3 domains either as a mixture or linked in a bispecific format. […] This confirmed that the avidity effect observed at the level of the receptors (FIG. 4 and FIG. 5) translates into an improvement in inhibiting cell signaling (Table 12) and cell proliferation (Table 13).
as §2

[10] = biological target: T3, recombinant EGFR extracellular domain (EGFR-Fc) (Homo sapiens, UniProt P00533); assay: EGFR-Fc affinity by surface plasmon resonance (Proteon); assay type: binding; conditions: bispecific molecules; read-out: KD (EGFR)
T3 construct: purchased R&D Systems
Procedure: Select EGFR-binding FN3 domains were screened to identify those with slow off-rates (koff) in binding to EGFR-Fc on a ProteOn XPR-36 instrument (Bio-Rad) to facilitate selection of high affinity binders. Goat anti-human Fc IgG (R&D systems), at a concentration of 5 μg/mL, was directly immobilized via amine coupling (at pH 5.0) on all 6 ligand channels in horizontal orientation on the chip with a flow rate of 30 μL/min in PBS containing 0.005% Tween-20. The immobilization densities averaged about 1500 Response Units (RU) with less than 5% variation among different channels. EGFR-Fc was captured on the anti-human Fc IgG surface to a density around 600 RU in vertical ligand orientation. All tested FN3 domains were normalized to a concentration of 1 μM and tested for their binding in horizontal orientation. […] The dissociation phase was monitored for 10 minutes at a flow rate of 100 μL/min. […]
Binding affinity of selected EGFR-binding FN3 domains to recombinant EGFR extracellular domain was further characterized by surface Plasmon resonance methods using a Proteon Instrument (BioRad). […] The dissociation phase for all concentrations of each EGFR-binding FN3 domain was monitored at a flow rate of 100 μL/min for 30 minutes (for those with koff ˜10^−2 s^−1 from off-rate screening), or 1 hour (for those with koff ˜10^−3 s^−1 or slower). […]

[11] = serine mutants of A3 in the context of ECB15

T2 sequence (P08581 25-932 limits assumed): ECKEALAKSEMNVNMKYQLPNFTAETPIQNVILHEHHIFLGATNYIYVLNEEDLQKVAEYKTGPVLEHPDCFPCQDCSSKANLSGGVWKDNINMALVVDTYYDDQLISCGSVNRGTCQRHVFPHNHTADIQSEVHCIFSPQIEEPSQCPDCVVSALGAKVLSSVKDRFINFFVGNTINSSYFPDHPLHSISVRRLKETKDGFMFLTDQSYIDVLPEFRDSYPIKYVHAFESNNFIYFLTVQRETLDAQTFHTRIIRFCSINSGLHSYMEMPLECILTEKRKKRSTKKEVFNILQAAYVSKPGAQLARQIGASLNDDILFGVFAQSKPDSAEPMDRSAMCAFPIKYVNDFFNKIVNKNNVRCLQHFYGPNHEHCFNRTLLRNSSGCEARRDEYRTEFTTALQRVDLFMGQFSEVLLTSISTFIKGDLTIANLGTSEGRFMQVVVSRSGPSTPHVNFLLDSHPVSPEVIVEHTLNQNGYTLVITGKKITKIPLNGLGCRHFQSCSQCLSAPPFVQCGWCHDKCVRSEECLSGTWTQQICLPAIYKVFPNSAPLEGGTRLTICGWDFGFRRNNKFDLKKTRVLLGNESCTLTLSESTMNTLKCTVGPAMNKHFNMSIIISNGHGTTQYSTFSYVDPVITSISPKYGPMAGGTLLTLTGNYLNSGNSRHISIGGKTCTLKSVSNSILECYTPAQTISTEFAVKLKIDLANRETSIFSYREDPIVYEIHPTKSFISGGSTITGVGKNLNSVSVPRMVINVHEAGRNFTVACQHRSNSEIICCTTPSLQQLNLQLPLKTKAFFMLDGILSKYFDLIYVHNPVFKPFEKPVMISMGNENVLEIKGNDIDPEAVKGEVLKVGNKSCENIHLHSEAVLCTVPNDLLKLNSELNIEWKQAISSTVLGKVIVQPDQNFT

B1: ECB38: bispecific SEQ ID NO: 120: P54AR4-83v2, (AP)5, P114AR7P94-A3, linked to albumin binding domain (protein)
chain: MLPAPKNLVVSEVTEDSARLSWDDPWAFYESFLIQYQESEKVGEAIVLTVPGSERSYDLTGLKPGTEYTVSIYGVHNVYKDTNMRGLPLSAIFTTAPAPAPAPAPLPAPKNLVVSRVTEDSARLSWTAPDAAFDSFWIRYFEFLGSGEAIVLTVPGSERSYDLTGLKPGTEYVVNIMGVKGGKISPPLSAIFTTAPAPAPAPAPLAEAKVLANRELDKYGVSDYYKNLINNAKTVEGVKALLDEILAALP
modifications: Bispecific EGFR/c-Met binding molecule
- toxicity, body weight loss, tolerability (in words) [1]: Slight toxicity; also recorded: tolerated in 7 out of 10 mice
- tumor growth (tumor growth inhibition, TGI) [2]: reduced tumor growth
- tumor growth (tumor growth inhibition, TGI) ([2]; listed as P54AR4-83v2-P114AR7P94-A3): showed the most efficacy
- Tumor Size at day 23 ([3]; bispecific 25 mg/kg, crizotinib, erlotinib 50 mg/kg, cetuximab 1 mg/mouse, listed as bispecific EGFR/c-Met molecule): 23 mm^3 and 23 ± 7 mm^3
- Tumor volume ([3]; day 7 (start of treatment)): 137 ± 7 mm^3
- Tumor volume ([3]; day 9): 142 ± 7 mm^3
- Tumor volume ([3]; day 13): 83 ± 6 mm^3
- Tumor volume ([3]; day 16): 44 ± 7 mm^3
- Tumor volume ([3]; day 20): 30 ± 6 mm^3
- Tumor volume ([3]; day 23): 23 ± 7 mm^3
- Tumor volume ([3]; day 27): 21 ± 5 mm^3
- Tumor volume ([3]; day 30): 23 ± 6 mm^3
- antitumor activity (in words) ([3]; mouse, in vivo, listed as bispecific EGFR/c-Met molecule): complete tumor regression (CR) in all mice; also recorded: complete response

B2: ECB5: bispecific SEQ ID NO: 54: P53A1R5-17v2, (GGGGS)4, P114AR7P94-A3 (protein)
chain: MLPAPKNLVVSEVTEDSARLSWADPHGFYDSFLIQYQESEKVGEAIVLTVPGSERSYDLTGLKPGTEYTVSIYGVHNVYKDTNMRGLPLSAIFTTGGGGSGGGGSGGGGSGGGGSMLPAPKNLVVSRVTEDSARLSWTAPDAAFDSFWIRYFEFLGSGEAIVLTVPGSERSYDLTGLKPGTEYVVNIMGVKGGKISPPLSAIFTT
modifications: bispecific EGFR/cMet binding molecule
- inhibition of phosphorylation of EGFR, bispecific versus monospecific [4]: comparable
- decrease of IC50 for inhibition of EGFR phosphorylation compared to monospecific EGFR-binding FN3 domain [5]: 30 fold
- inhibition of phosphorylation of EGFR, bispecific versus monospecific [6]: comparable

B3: ECB15: bispecific SEQ ID NO: 57: P54AR4-83v2, (AP)5, P114AR7P94-A3 (protein)
chain: MLPAPKNLVVSEVTEDSARLSWDDPWAFYESFLIQYQESEKVGEAIVLTVPGSERSYDLTGLKPGTEYTVSIYGVHNVYKDTNMRGLPLSAIFTTAPAPAPAPAPLPAPKNLVVSRVTEDSARLSWTAPDAAFDSFWIRYFEFLGSGEAIVLTVPGSERSYDLTGLKPGTEYVVNIMGVKGGKISPPLSAIFTT
modifications: bispecific EGFR/cMet binding molecule
- growth of NCI-H1975 cell line ([7]; EGFR L858R, T790M): inhibited growth
- tumor cell growth of cell lines shown in Table 20 ([7]; wild type, amplified or mutant EGFR, wild type or amplified c-Met): inhibited tumor cell growth
- ka [8, 11]: 351000 M⁻¹ s⁻¹
- kd [8, 11]: 0.000133 s⁻¹
- IC50 [9]: 23 nM

B4: ECB168: bispecific SEQ ID NO: 190: P54AR4-83v22, (AP)5, P114AR7P95-C5v2 (protein)
chain: B3 chain with M84I, M177L, G178S, K183S
modifications: Bispecific EGFR/c-Met molecule
- Kd [10]: 0.4 nM
- Kd ([8]; bispecific molecules, read-out: KD (c-Met)): 0.32 nM
- IC50 [9]: 3.1 nM
